A short description of the data set: label from the status in PepcDB records.
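Further: failed if final PepcDB status was selected cloned or expressed and not failed if soluble or beyond.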

On to “MSYKVLPLSEVMSHEFGLIEGNFHNISEADIASAIPSHLTFEQLKQHLYEGNLALVSDTPQTPALLSYNDPIGPKTWRLNSEVISELSDDAANNLLAITKTTRATGGYRSCIGETSTLERVYTPQPIATESEEEITKEFEYSFEVGCSDATIKKMVHSDFALAKTEKENAVTRWEQTNTEQGTRYTALCVFDEPKRLNIHIADDNLGLTPLEAVTLQKAGSCKTDEGFIPVVPAVRLGERLGLPTEGYYYHFNDGELVQEYKILGEEKWAFYATQSTQDKLNDERGFTKDQSAILVYWKLADQIIENQYIIYLERQITREELDNLSEDWLCENGIKLDIPALFDAVKQPEEARSEGNNDETQAEQTAATHTVTVGEDWQSIAELYGMGAKALLLLNPVFEADPLSLAVGDEIIVAEKQQQQAPDKKNTFPPLRPQTYNNIRNSHYQHSDPLLGLTKYRAINTADCIEGDVVILNLKDATSSIVFAKSCTRPEGCIEIGDQQESISNFGPWSFFFAQANANPAAVIPAIQATQAQMAMGSSAAVAGSPEQMQQTQTAAMQLDKLAGTLKEKIVEGYRWQVEGIGALFAMQQSLFGDNTQYTDQDLRQVTTAQSRVRVHITEPQGGEFYPHVQGYHVDDTRIPIKYVKQGNNGQLSVAIEENGPTIYWTPEENGEASWQTTPDHSDGFEKDDILVTPIHSDSDANVTVTPAPEEKDWRDAILVFPESSGIAPLYVVYKESPRDKPGVVTGKGEDIFGIWLADAGKDLGAPIPSQIADKLRGREFSSFDAFREGFWYAVGEDQTLINQFSRANQRLIKRGRSPFSLPSEQVGGRQRYELHHKEEIQYGGEVFHVDNLCVLTPKRHISIHKDQ”, for which the protein production result is reported as “failed”.
With “MSYLDTATDLPNQTLFLEYLNIALSNARRHHAQVGVLLCQINNWSDLKRKRGDAVANAFLQEAGQKLKSNLRNGDIVSRWDKDEFIFLVSKVQDTSSLLGIAQRLMKPVLAPVTAGGRPFQPEITYGVALYPVDGEQVNDLIGHIRENLQQLLPQPTNPGSGLEHHHHHH”, the protein production result was “not failed”.
In the case of “MSYNFEEERVIKEIREKNAKRVLLQFPEGLKYFSIDIVKKLREKLPNVNFIISGEPSWGACDIAEDEAQQVNADLIIHFGHTPYTWYYPKFPTIFINAESNLDISENALHSLENDISKYNGRKISLTATLQHVRLLSKIKSFLEDKGYDIVIGKPSNRFMFDGQVLGCDYKAAEVEADIYVIVSGGLFHALGLGLATNKPTIKLDPYLQKSEDITNDVRKILKVRYGKILQALDKRSWVIIQGVKVGQNRPNMIKYFYDKLTEKGYDVFTVTNKVLTLDILRNLDRNYIDVFLVTSCPRLPIDDLYNYEKPVLTPGEAKMIINNSLEPYIFPW” it was “failed”; in that of “MSYSKEVNRYVFPLVATNLVQVLIGQISLHFAVDNSNAALSGISVIQNFLFAFGGILGAFSLSFNIRGAKAFYNKEYQRFKNLLKSSLLIDIGIGLSFILFCLGLSRPFLKVFYGFDGQLLELSTTYFKIMSPYILLTLLIFLFSNLLKIEKKTKPIFWIGTLSSVLDVLLNYYLVPLLGIRGAAISSILSLLVIVLGYFIFVKSLVFQALQEASTSKLELIRFGIPLSIQEILESVLFIMAFDAFMGRQGLRILSIYAVVSQLFAIVRTPAFMYAGSIAIFLPEARKKEDEKALIATIFRNSYAVIFIFACLVTVFSNPFAHFLSDEVIDNVLPFTLYTVVVMGATPLYESSKMLLQSNDDEQWVLKITSIVNILSILILLVLQLMGKQTYQSLYGIYGLSLIVLSILFIKRNSEKRVSSRKMTM”, “failed”; in that of “MTAASFAQILLLLGTTALVVAVFQWLRVPSSLAYLVVGVLLGPHTGGPVIENPEIHGAAEFGIVFLMFTIGLNLSLPQVHALRHLVLGLGTGQVVLTTLVVGAAAFAFGLSPEAAFVVGAVFAQSSTAIIGKQLAEQGEEYSRHGRLAVAMSVFQDVTAVPLIVVVPVLAVPSLRVLGESLAWALAKAVLAFVLVFFAGRWLLRPLFHAVASRRSAELFTLTVLLVSLGAGGLTYQLGLSVAFGAFLVGMMLGETEFRHQVESTIRPFRDVLLGLFFVSIGMLFDPSLMEGTWQWALGGAFVLLAAKTVLVAVLVRATGIDLATAWRVGLLVAVGGEFGFALLAIALDAGVISQLTGQIVLMAVLLSMITAPFLIRYNRVLVEGWFRPPPGEEGALSAGPGVAGSPHDHVIICGYGRIGQNIGRFLEEERIPYVALDLDPQRVKEARIACEPVYYGDSSERDMLEAVGIGKARLVVVSHEDLAAAHKVLHHAAALRPGLPVMVRTRDESHVEELRRAGAAEVVPETLEAGLMIASQALLLLNVPLSRVARRIREQRLNRYLLLREFFRGDETFSDDVQSQDGDRLRAVPLPPGCRVAGCTLAELALENVVVTALVRHGVRELAPAPETRLAEGDAVVLFGAVSDLDKAERRLLG”, “failed”.

These data come from a protein production outcome set (Wang et al. 2014).
